In patent US12337027B2, “Methods and compositions relating to lung repair” (THE CHILDREN'S MEDICAL CENTER CORPORATION, priority 2018, dated 2025):
“Also recorded” adds a separate entry of the source.

B1: sFlt1: soluble variant of the VEGF receptor encoded by the Flt1 gene (protein, listed as Homo sapiens)
chain: MVSYWDTGVLLCALLSCLLLTGSSSGSKLKDPELSLKGTQHIMQAGQTLHLQCRGEAAHKWSLPEMVSKESERLSITKSACGRNGKQFCSTLTLNTAQANHTGFYSCKYLAVPTSKKKETESAIYIFISDTGRPFVEMYSEIPEIIHMTEGRELVIPCRVTSPNITVTLKKFPLDTLIPDGKRIIWDSRKGFIISNATYKEIGLLTCEATVNGHLYKTNYLTHRQTNTIIDVQISTPRPVKLLRGHTLVLNCTATTPLNTRVQMTWSYPDEKNKRASVRRRIDQSNSHANIFYSVLTIDKMQNKDKGLYTCRVRSGPSFKSVNTSVHIYDKAFITVKHRKQQVLETVAGKRSYRLSMKVKAFPSPEVVWLKDGLPATEKSARYLTRGYSLIIKDVTEEDAGNYTILLSIKQSNVFKNLTATLIVNVKPQIYEKAVSSFPDPALYPLGSRQILTCTAYGIPQPTIKWFWHPCNHNHSEARCDFCSNNEESFILDADSNMGNRIESITQRMAIIEGKNKMASTLVVADSRISGIYICIASNKVGTVGRNISFYITDVPNGFHVNLEKMPTEGEDLKLSCTVNKFLYRDVTWILLRTVNNRTMHYSISKQKMAITKEHSITLNLTIMNVSLQDSGTYACRARNVYTGEEILQKKEITIRGEHCNKKAVFSRISKFKSTRNDCTTQSNVKH

Legend:
[1] = system: C57B16 mice following left pneumonectomy; test: Compensatory lung growth after left pneumonectomy (lung volume by water displacement); format: in vivo; conditions: for lung growth: compensatory lung growth after pneumonectomy
Description: (§1) C57B16 mice were randomized to receive daily intraperitoneal injection of either saline or soluble fms-like tyrosine kinase 1 (sFlt1) at a dose of 20 mcg/kg following left pneumonectomy. On post-operative day 4, mice underwent pulmonary function studies and were subsequently euthanized for lung volume measurement. Lung volume was determined by water displacement method. […] This therapy can potentially improve lung growth and pulmonary functions in patients suffering from severe pulmonary hypoplasia.
(§2) sFlt1 was administered to mice according to the experimental design depicted in FIG. 6. […] The dose response to sFlt1 was investigated (FIG. 8) and, in mice, 20 mcg/kg sFlt1 was the optimal dosing regimen (FIG. 9).

[2] = system: mice; test: Exercise tolerance tests; format: in vivo
[3] = system: VEGF; test: VEGF levels after sFlt1 administration; format: in vivo, mice; conditions: FIG. 11
[4] = system: HIF-2α; test: HIF-2α levels after sFlt1 administration (incl. immunohistochemistry); format: in vivo, mice; conditions: FIG. 11, 12
From the text: FIG. 12 depicts immunohistochemical measurements of HIF-2α levels.

[5] = system: C57B16 mice following left pneumonectomy; test: Pulmonary function studies after left pneumonectomy; format: in vivo
Description: as §1, §2

[6] = system: liver and spleen; design: species or system mice; conditions: mouse, in vivo
Description: LW/BW: liver weight/body weight, SW/BW: spleen weight/body weight.
as §1

[7] = system: mice after 70% partial hepatectomy; test: Liver regeneration after 70% partial hepatectomy; format: in vivo; conditions: 10, 20, or 50 ug/kg daily intraperitoneal vs saline, POD 4
Description: Mice underwent 70% partial hepatectomy and were randomized to receive saline (control) or one of 3 doses of Flt1 (10, 20, or 50 ug/kg) via intraperitoneal injection. Treatment was performed daily and mice were euthanized on post-operative day (POD) 4 for organ harvest. Liver samples were weighed and normalized against body weight.

[8] = sFlt1 20 mcg/kg daily intraperitoneal vs saline, post-operative day 4

| Molecule | effect of HIF-2α inhibition on sFlt1-induced lung growth ([1]; PT-2385 given with sFlt1, FIG. 15) | effect of HIF-2α inhibition on sFlt1 effect on exercise tolerance ([2]; PT-2385 given with sFlt1, FIG. 16, 17) | levels of VEGF [3] | lung growth [1] | lung growth ([1]; listed as soluble VEGF receptor) | optimal dosing regimen (dose response) ([1]; in mice, FIG. 9) [mg/kg] | lung volume (LV/BW: lung volume/body weight) [1, 8] | levels of HIF-2α [4] | inspiratory capacity (IC/BW) [5, 8] | pulmonary compliance [5, 8] | pulmonary elastance [5, 8] | pulmonary mechanics ([5]; sFlt1 at 20 mcg/kg, FIG. 10) | organ mass of liver (LW/BW: liver weight/body weight) [6] | organ mass of spleen (SW/BW: spleen weight/body weight) [6] | liver weight normalized against body weight [7] | baseline activity in exercise tolerance tests ([2]; FIG. 16) |
| --- | --- | --- | --- | --- | --- | --- | --- | --- | --- | --- | --- | --- | --- | --- | --- | --- |
| CS(=O)(=O)c1ccc(Oc2cc(F)cc(C#N)c2)c2c1[C@H](O)C(F)(F)C2 [PT-2385, reference compound] | blunt the effects of sFlt1 | blunt the effects of sFlt1 |  |  |  |  |  |  |  |  |  |  |  |  |  |  |
| B1 |  |  | unexpectedly increases | increases lung growth; also recorded: accelerated lung growth | accelerated compensatory lung growth | 0.02 | significantly higher lung volume; also recorded: increases lung volume | unexpectedly increases | significantly higher; also recorded: improve; also recorded: increases inspiratory capacity | improves | improves | improved pulmonary mechanics | does not change | does not change | no difference in liver weight | increased baseline activity |
